The record followed here is US20250213702A1.

The experiment has as its target IL-2Rαβγ on mouse CTLL-2 cells (mouse) (UniProt P01590). Briefly: cell-based or functional assay.
Sequence of UniProt P01590 (P01590 22-268, chain 1 of 3): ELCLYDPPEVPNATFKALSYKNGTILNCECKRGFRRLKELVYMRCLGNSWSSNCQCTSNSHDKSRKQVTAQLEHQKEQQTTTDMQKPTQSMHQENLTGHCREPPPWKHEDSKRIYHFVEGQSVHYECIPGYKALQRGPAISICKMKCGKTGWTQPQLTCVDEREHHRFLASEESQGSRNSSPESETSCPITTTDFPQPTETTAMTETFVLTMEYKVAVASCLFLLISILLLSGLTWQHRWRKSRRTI
Sequence of UniProt P01590 (P16297 27-539, chain 2 of 3, further chain): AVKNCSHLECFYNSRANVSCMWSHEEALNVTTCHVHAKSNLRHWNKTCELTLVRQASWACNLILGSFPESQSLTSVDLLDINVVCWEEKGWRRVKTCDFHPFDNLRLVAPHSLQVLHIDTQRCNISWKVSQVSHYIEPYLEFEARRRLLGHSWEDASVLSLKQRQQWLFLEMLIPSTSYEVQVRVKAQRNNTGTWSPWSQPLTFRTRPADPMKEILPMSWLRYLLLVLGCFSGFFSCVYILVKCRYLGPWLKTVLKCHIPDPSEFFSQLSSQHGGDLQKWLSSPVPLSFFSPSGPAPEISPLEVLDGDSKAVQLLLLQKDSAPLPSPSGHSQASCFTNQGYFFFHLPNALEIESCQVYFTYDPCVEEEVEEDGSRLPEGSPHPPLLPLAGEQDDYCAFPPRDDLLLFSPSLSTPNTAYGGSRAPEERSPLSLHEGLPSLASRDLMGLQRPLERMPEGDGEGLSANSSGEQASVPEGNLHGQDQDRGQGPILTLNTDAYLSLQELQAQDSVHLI
Sequence of UniProt P01590 (P34902 23-369, chain 3 of 3, further chain): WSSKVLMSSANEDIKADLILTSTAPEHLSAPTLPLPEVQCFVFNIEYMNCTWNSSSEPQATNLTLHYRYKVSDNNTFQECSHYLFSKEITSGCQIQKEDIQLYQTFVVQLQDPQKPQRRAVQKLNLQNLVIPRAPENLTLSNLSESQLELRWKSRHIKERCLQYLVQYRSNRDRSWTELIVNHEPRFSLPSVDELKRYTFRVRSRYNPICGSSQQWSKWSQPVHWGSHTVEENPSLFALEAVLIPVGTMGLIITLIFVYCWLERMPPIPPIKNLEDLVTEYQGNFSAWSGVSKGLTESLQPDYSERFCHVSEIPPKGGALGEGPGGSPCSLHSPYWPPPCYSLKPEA

On to “reference rhIL-2 (purchased from Beijing Solarbio Science & Technology Co., Ltd., catalog number: P00020) (from UniProt P60568 21-153) (ligand)”, for which the EC50 (ng/mL) of STAT5 phosphorylation assay (CTLL-2 cells) was 0.38 ng/mL and the EC50 (ng/mL), STAT5 phosphorylation assay (CTLL-2 cells) turned out to be 0.18 ng/mL.
